The subject of data set [1] is T1, C13A mutant precursor peptide of LazA*.
T1 sequence: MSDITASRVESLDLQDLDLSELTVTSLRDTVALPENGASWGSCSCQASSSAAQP

Data set [2] has as its system T2, S10A mutant precursor peptide of LazA*.
T2 sequence: T1 sequence with S48A, A51C

Data set [3] has as its system T3, S11A mutant precursor peptide of LazA*.
T3 sequence: T1 sequence with S49A, A51C

For data set [4], the system named is T4, S12A mutant precursor peptide of LazA*.
T4 sequence: T1 sequence with S50A, A51C

For data set [5], the system named is T5, 4SCSC7_4AAAA7 precursor peptide.
T5 sequence: T1 sequence with S42A, C43A, S44A, C45A, A51C

Substitutions are numbered along the chain they refer to.

For the substance “LazC (macrocyclase of lactazole biosynthesis, His-Tag-bound recombinant protein)”, the “leader peptide cleaved off through LazC reaction (LC-MS chromatogram)” value in data set [1] is “A leader peptide cleaved off was slightly seen in S11A and C13A”; in data set [2] it was “Ser (10) and Cys (13) are also relatively important”; in data set [3] it was “such a leader peptide was hardly seen in S11A and S12A”; in data set [4], “such a leader peptide was hardly seen in S11A and S12A”. The “leader peptide elimination (LC-MS chromatogram of the leader peptide cleaved off through LazC reaction)” value in data set [5] was “Leader peptide elimination was also seen in the 4SCSC7_4AAAA7 precursor peptide at a level equivalent to LazA*”.

(Values after US12359237.)
